Laboratory results: a protein production outcome set (Wang et al. 2014)

Experiment: label from the status in PepcDB records

| Sequence | protein production |
| --- | --- |
| EGRLVCTVRDMTDRRQKERALRHRSSAMEVASDGIAILDEAGTYQYVNQAHASIYGYDTPGALVGRSWTACYEEAEQQRLEAEAMAALEETGDWRGEARGVREDGSSFPQELTLTVLEDGSIVCVVRDITARKEDERELRSTKQYYEQILEKAVK | failed |
| MQKLTRINDFNEVLNSRKSVKVFDENYKIPREEMDEIITKATKAPSSVNMQPWRIAVVQSDEMKEKVKESFGFNSRQLTTSSAMLIIFGDLQNYEKAEQIYGDAVEQQLMTEDIKAQLLDWILPYYKNLSREGMKDIVNIDSSLMAMQLMLTAKAHGYDTNPIGGFDKENIADIIGYDSDRYVPVLAIAIGKKAQDAHDSVRLPIDDVREFL | not failed |
| MVKCMKPGKAVILLQGRYTGKKAVIVKSFDDGTVEKKYGHCLVAGLKKYPSKVIRKDSAKKTAKKSRVKCFFKVINYQHVMPTRYTLDLDLKNVVSADAISSKDKKVTALKEAKAKFEERFKTGKNRWFFTKLRF | failed |
| MKVLFLTANEFEDVELIYPYHRLKEEGHEVYIASFERGTITGKHGYSVKVDLTFDKVNPEEFDALVLPGGRAPERVRLNEKAVSIARKMFSEGKPVASICHGPQILISAGVLRGRKGTSYPGIKDDMINAGVEWVDAEVVVDGNWVSSRVPADLYAWMREFVKLLK | not failed |
| MKSIEKDKYQDIRDAVRSLCSEFDDKYHRKIDEAKAYPEEFVNKLTKAGWLAALIPEEFGGSGLGLTEASIIMEEINRSGGNSGACHGQMYNMNTLLRHGSDKQKEFWLPRIATGEWRLQSMGVTEPTAGTDTTRIKTTAVKREDRYVINGQKVWISRVQHSDWMILLVRTTPLANVKRKSEGMSIFMVDIKEAMKNGMTVRPIPNMVNHETNELFFDNLEIPEENLIGEEGMGFHYILDGLNAERTLIAAECIGDGYWFMDRVTRYTCEREVFGRPIGQNQGVQFPIAEAFIAVEAANLMRFKACELFDQHLDCGAQANMAKYLAAKASWEAANACLQFHGGYGFACEYDIERKFRETRLYQVAPISTNLILSYIAEHVLEMPRSF | failed |
| SQGLDTLLRDLTDRAVVQVPGAVACSVTVRRADRLMTLAGSTGLPSGLDLRQYENGSGPCVDAAESGDAQYCADLAEETRWPAYTEYALATGVRCVLALPLPIEGETGAALNLYGLVPGSLVQGLDAARAFAERAADAVNEALRIERRQASAADVRTALLSRSVIDQAVGMLMARERI | not failed |
| SEEEEYEQIPQENPPEELSQDPVLELSGGLREKEQKTPRRLRLILMGKTGSGKSATGNSILGRDVFESKLSTRPVTKTSQRRSREWAGKELEVIDTPNILSPQVSPEVADAICQAIVLSAPGPHAVLLVTQLGRFTDEDQQVVRRLQEVFGVGVLGHTILVFTRKEDLAGGSLEDYVRETNNQALAWLDVTLARRHCGFNNRAQGEEQEAQLRELMEKVEAIMWENEGDYYSNKAYQYTQQNFRLKELQERQVSQGQGSEDVPGEESWLEGLSQIQKESEEAHRCLLGKADL | not failed |
| MHSGLNPQDIAFLKTIIAFFFLSVFLFKVPVSQKIAYISSTPSKLSVFTQIAICAFLGIFSLFFFETIAYNHGAAANVVVVLMASAAISALFFGRLILKESIYINSLIGTLLAVAGISIISWKGENSLLMLINASIAGTGYGLFSVLVKKFKLNGGLFLTKYLLLFGSVYLAVPFLVNLHAIHFNIDIVLGLIGLAVLPTILGFFCTTKALSYMSAAKVQVTELSEPIFAALMAWVFIHEQPTLSFLYGAIFIISGIFVMNRAPKSN | failed |
| RKKPVSQSLEFPTRYSPYRPYRCVHQGCFAAFTIQQNLILHYQAVHKSDLPAFSAEVEEE | not failed |
| MKYIVAVNASPRSGWNTSQLVEAAAKGAKEAGATVDIIDLYKLEPFQGCISCFGCKLPRTFGRCVSKDGLSEVLDKIRKADGLILGSPNYLGNLTAGFRALYERLIFQSLTYNKERPNCNEHMIPVLLITTSNCDESIYDKIGYTSMLEGYKQMLERFVGPLEHHHHHH | failed |
| MDELHPGYLVGLLVLLVACSAFFSCVETALLNLDRYRLRLQAKQGLRGARRSSWLLLHDDRLRGTLLFGRTLVNVSAAALASWAALRHWGVIGLAVAIPGMTLLLLLFGALLPRRYGALRSERVALPLSLPLLILQRLCWPLLWLLTLLSNALLRLLGVAAAEQDDSGRSRDEEALHPADNPQASEVNRHDMLLGLLDLEKVTVNDLMIPRNEIEGIDLDDELEVIVEQLRTTSHTRLPVYRDDVNQIEGVVHMRQIARLLTQGRLTKENLRQACMEPYFVPESTPLSTQLVNFQKEKRRIGVVVDEYGEVIGIVTLEDILEEIVGDFNDLDSLDNPDIQAQEDGSFVIDGSANLRELNKSLGWQLPCDGPKTLNGLVTEALEQIPDCAVCLRIGPYCLEIQQSAENRVKSVRAWHPRALTPLVESDASV | failed |
| MLSLLLILPVIGALIIGFFPGNIPAKQLRQITEVFAVLTLVWSLLVLFKFDVTDPQFQFQEYLPWIPQLGLNYSLAIDGLSLPLVILNNLLTGVAIYSIGPNVNRSRLYYGLILLINAGISGALLAQNLLLFIVFYELELIPFYLMIAIWGGEKRGYASMKFLLYTAFSGLLVLAAFLGMSLLSGSHSFDYNPEITQTFTESAQTILLILILLGFGIKIPLVPLHTWLPDAYTEASPATAILLGGILAKLGTYGIIRFGLQLFPQTWAQFAPVLAIIGTVTVLYGALSAIAQKDIKRMVAYSSIGHMGYILVAAAAGTELSVLGAVAQMVSHGLILALLFHLVGIVERKAGTRDLDVLNGLMNPIRGLPLTSALLITGGMASAGIPGLVGFAAEFIVFQGSFPTFPIPTLLCILASGLTAVYFVILLNRTCFGKLDNQRAYYPKVLASEMIPALVLTAIIFFLGVQPNYLVHWTQTTTNEMIAQLPHETSAIEQLAQGVTLP | failed |
| MKEDWKSTIQKRIVERNLNQSKKYESIMKSYNSLVEEKNNLLAIIASLTSENMYLLNNRKLNHSFESTMMTETNISRNEDIFLSNETKKGHNNNNNQNDYNNDNSLNYSRTNIITMKSPDSLSQNTITKKEFLEVIKEKGKNEELILLLKNSVNEKEKMLHILNKENNNLNNVICKREEELYEKKKDIFKLEELLNKKETQIKLYENNNKSLKTKIQLHDRKNQKYFRQYNILRFTYFKLLKQVGEMKVYNNNINQNYFSLRKEMLQKKEENEKLLNYLIHCKTSYKKELKKLYQEITNKQKKYILFKNNQFYVNLYLRKF | failed |
| MSLRIDPLGGESLKNQEVKGKKSGKTSRVGESKKKEFFDILEDVKEDHFEKLLEEAVEEVIDSGNELVRSPTPSNLKRYKNAIKEFLKLIEKKIYKLAGSFDMNSGRARLHLVVEEVNEKLMDLTEKIMKNEWQTINLAARIEEINGLILNLYREGHHHHHH | not failed |
| MAPAPAAEFWEARYRDTGRVWSGRPNELLVQEAGGLAPGTALDLGCGEGADAVWLASRGWRVTGVDISATALERAAGHADGAGVGDRVLWERHELGPSFPEGSFDLVSAHYLQSPVALDQQAVLRAAARAVAPGGTLLVVMHAGWPSWQTEPPFDAAFPTLDGVLAELALPEGEWSVETRRTARRPSVAPDGTEGFREDHVWRLKRAVLEHHHHHH | not failed |
| MAANNRSDHGSDENTRLYNPYQNYEVPINKSQYLYKLPTSPEFLFTEEALRQRRSWGENLTFYTGTAYLGGSVAGASVGVITGVKSFESGDTTKLKINRILNSSGQTGRTWGNRIGIIGLVYAGIESGIVAATDRDDVWTSVVAGLGTGAVCRAARGVRSAAVAGALGGLAAGAVVAGKQIVKRYVPI | failed |
| MLISIAFLLVLYLLNYSSFRMLKSFLTLKKISQYAYLWFFILLSIGEAAFVFYRNIMPSHLFVLTSACSFVSFIIFILSLSFYGFSYSIEKIDFLHSRRKSLKNFLKLGFYLALLGYFWRGFYEGLARPKIKETPIYLDKLDKELKIILLTDMHVGSLLQKDFVDYIVEEVNQKEVDMVLIGGDLVDESIEKVKSFLLPLNNLKSTHGTFYVPGNHEYYHGIEPILSFLDTLNLTILGNECVHLGGINLCGVYDYFARKRQNFAPDIDKALKKRNESKPTILLAHQPKQIRSLKESHSVDLVLSGHTHAGQIFPFSLLVKLAQTYLHGLYKHSPTTQIYVSSGAGYWGIPLRFLAPSEIAYLRLLPKNQA | failed |
| MFKVLAEAFASARLRLGAILFSPQSLAFLPAFCLGLYWYGGETALMITALVFPVFFLVARAKLAETVTTSRQDSVLGVMQPDGFQDIVAARFREARAGGLISTVFQIEIDDHTSLVERHGQRAAEVISTTSADRIAAVLRDRDAVTHLDTFKYAVCLEPVRQMDLELCIQLAGRIQAALEEPIALDATAVCITSSVGFCQQTKVLSRSGEAWLAAAGHALREAHLNGPGAIRAYSEKMQQKSEIRAELREEVAQALEKGQIKPWFQPQISTDTGLVTGFEALARWNHPKRGMVPPGAFLTAIEQAGMLEKLAEVMIFHAFTALKAWDSAGVCVPQVGVNFAGPELSNPKLVDKIIWELDRFDLAPERLAVEVLETVVANSPDDTITRNINGLSKLGCRIDLDDFGTGHASISSIRRFSVSRIKIDRSFVIKADRDPEQQRMISAILTMAERLEVETLAEGVESVGEHALLAQLGCDHVQGFGIGKPMPFDQTLDWIASHNAKLQATPQILPNKLRLEHHHHHH | not failed |
| MNPMAIISITAFVVALVSGVYIFVKNPESRFNRALLLFSALIAYLSLTDFGLYISESYMMADFWVRMGFLWPIVVPVILHMVLLFTGRRPTMPLLAVIYAPAVVIAALELTTDLITAGPTMTSWGWTFSAAENSLPYQISNIWGFIIASVAIILVALHWRSSRGSDRTQAHYLLTGLILPVLAGVLTDLVLPAAGMAVPSLTDPSAALGVSIIAYGVMRFRLPILSPLNAAMDIVRNMNTFLIITDLGLNIHYVNPATERLTGRRAAEFSGRKVTEVLKFDELSTGSIMESRLRGKDEWIPVIVSAGHVHGSGGEHLGLLFTGSDMRPILEMEEKLRRREDRLVLLTEHMADGLGEFDRDFNFRYLSPSVKKITGYDHEMLTGMSALDFMDYLHPDDTEEVKKLILTRGEGHRATFRIRRPDGNYRWVEYVDRPIRTDGDIEGYVFGLRDIHEHKLAEEALIVSKEKFRELFRNMRSGIIAVESDGKGFRVKSMNPAAERMEGVSCAAIQGMDLQEALPEIWNSPIRRALQEIRETGEAIHCPEVECGEGWFDVHLHQLSTGEVVIICTDITLRKQYEDELRASLREKEALLREVHHRVKNNFQVISSLINLQLDDAEDPAPLRDLQSRIQSMALVHELLYESEDLTSIDMGRYIERLTSSIVNSHHNGEIEVEVAVGDITLPLETAIPLGLIINELVTNSFKHAFTSGGMISVELEEHGGEFTLTITDNGVGLPPDFIIEDSDSLGLRLVAGLVDQIDGTLEVSGEDGTRFRLTFGVVPYRRRV | failed |
| MKILWLIILVNLFLSCGNESKEKSNLGLRLRELEISGGGSESKIEVYKEFIEKEDKNILKIVNSIDKKARFFNLIGLEFFKLGQYGPAIEYFAKNLEINPNNYLSHFYIGVASYNLAKNLRVKDEVEKYIILAENSFLKSLSIRDDFKDSLFAISNMYVYDLDKQLEAKNYLNKLGDMGEDYFEFLMLRGANYYSLGDLGNAILFYDKASKKASTEEQKEGVSRIMSNLK | failed |
